Consider ten molecules from patent US20260242458A1 (NOVAROCK BIOTHERAPEUTICS, published 2026).

Residue numbers refer to the chain shown, from its start.

To fix the notation:
T1: recombinant human IL-25 protein (human, UniProt Q9H293 33-177)
T1 sequence: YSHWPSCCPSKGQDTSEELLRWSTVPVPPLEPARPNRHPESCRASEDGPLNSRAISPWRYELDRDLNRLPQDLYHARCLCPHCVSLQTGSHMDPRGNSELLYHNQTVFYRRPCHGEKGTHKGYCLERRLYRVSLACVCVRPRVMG

T2: recombinant mouse IL-25 protein (mouse, UniProt Q8VHH8 17-169)
T2 construct: Bought (Sino Biological Inc, catalog no: 50138-M07H)
T2 sequence: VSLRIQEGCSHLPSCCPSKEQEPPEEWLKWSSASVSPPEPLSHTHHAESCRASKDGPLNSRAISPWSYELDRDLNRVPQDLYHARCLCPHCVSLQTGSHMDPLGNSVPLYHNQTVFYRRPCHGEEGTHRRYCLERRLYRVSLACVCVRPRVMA

T3: recombinant cynomolgus IL-25 protein (cynomolgus monkey, UniProt Q9H293 33-177 (human entry), limits assumed)
T3 construct: Bought (Sino Biological Inc, customized order); also called cyno IL-25
T3 chain: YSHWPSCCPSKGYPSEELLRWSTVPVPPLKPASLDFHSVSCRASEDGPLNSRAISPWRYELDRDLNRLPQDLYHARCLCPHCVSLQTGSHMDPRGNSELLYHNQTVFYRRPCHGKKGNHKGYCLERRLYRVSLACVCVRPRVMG

B1: IL25Ab7 (antibody, IgG1, V domains shown)
VH: QVQLVQSGAEVKKPGASVKVSCKASGYSFTGYTMNWVRQAPGQGLEWMGLINPDNGGTSYKQKFQGRVTMTVDKSISTAYMELSRLRSDDTAVYYCAREGYYGPSPFHHYAMDYWGQGTLVTVSS
VL: DIQMTQSPSSLSASVGDRVTITCQASQDISNYLNWYQQKPDGTIKLLIYYTSTLHTGVPSRFSGSGSGTDYTFTISSLQPEDIATYYCQQYSKLPYTFGQGTKLEIK
B2: IL25Ab10 (antibody, V domains shown)
VH: B1 VH
VL: B1 VL
B3: IL25Ab9 (antibody, V domains shown)
VH: B1 VH
VL: B1 VL with D41G, G42K, T43A, I44P
B4: IL25Ab6 (antibody, V domains shown)
VH: B1 VH
VL: B1 VL with D41G, G42K, T43A, I44P
B5: IL25Ab11 (antibody, IgG1, V domains shown)
VH: B1 VH with P41H, Q43K, G44N, Y60H
VL: B1 VL with F73L, Q100G
B6: IL25Ab8 (antibody, IgG1, V domains shown)
VH: B1 VH with P41H, Q43K, G44N, Y60H
VL: B1 VL with F73L, Q100G
B7: IL25Ab7 Fab (Fab, V domains shown)
VH: B1 VH
VL: B1 VL
notes: VH/VL assigned as for IL25Ab7
B8: IL25Ab6 Fab (Fab, V domains shown)
VH: B1 VH
VL: B1 VL with D41G, G42K, T43A, I44P
B9: IL25Ab8 Fab (Fab, V domains shown)
VH: B1 VH with P41H, Q43K, G44N, Y60H
VL: B1 VL with F73L, Q100G
notes: VH/VL assigned as for IL25Ab8
B10: IL25Ab3 Fab (Fab, V domains shown)
VH: EVQLQQSGPELVKPGGSVRISCKASGYSFTGYTMNWVKQSHGKNLEWIGLINPDNGGTSHKQRFMGKATLTVDKSSSTAYMELLSLTSEDSAVYYCAREGYYGPSPFHHYAMDYWGQGTSVTVSS
VL: DIQMTQTTSSLSASLGDRVTISCSASQDISNYLNWYQQKPDGTIKLLIYYTSTLHSGVPSRFSGSGSGTDYSLTISNLEPEDIATYYCQQYSKLPYTFGGGTKLEIK
notes: VH/VL assigned as for IL25Ab3; also called murine parental Fab

For one assay, the target named is T1, recombinant human IL-25 protein. As to the kind of experiment: cell-based or functional assay.
B1: the “IC50, IL-25 induced NF-kB signaling (SEAP) in HEK-Blue IL-17 reporter cells” value (“IC50, IL-25 induced NF-kB signaling” for short) came out at 0.042 nM.
Take B2: the “IC50, IL-25 induced NF-kB signaling” value came to 0.052 nM.
On the same count and under the same terms, with B3 the figure was 0.043 nM; with B4, 0.048 nM; with B5, 0.037 nM.
Take B6: the “IC50, IL-25 induced NF-kB signaling” value was 0.041 nM.

The target is the same in the next assay. As to the kind of experiment: cell-based or functional assay. This is another data set of the same source.
In the case of B1, the “IC50, IL-25 induced CXCL1 production in HT-29 cells” value came to 0.183 nM.
Still for that read-out and setting: with B2 the figure was 0.198 nM; with B3, 0.225 nM; with B4, 0.225 nM.
Same read-out and setting: with B5 the figure was 0.187 nM; with B6, 0.199 nM.

Another assay shares this target. As to the kind of experiment: cell-based or functional assay. The source holds these as a separate data set.
Consider B1, for which the “IC50, IL-25 induced IL-5 production in human PBMC” value was determined as 0.85 nM.
Take B2: the “IC50, IL-25 induced IL-5 production in human PBMC” value came out at 1.43 nM.
The same measure, in the same setting: with B3 the figure was 0.435 nM; with B4, 0.381 nM.
On the same count and under the same terms, with B5 the figure was 0.953 nM.
On the same count and under the same terms, the result for B6 reads 1.04 nM.

For the next assay the target is unchanged. As to the kind of experiment: BLI, Fab; species of IL-25 not stated, taken as human. A general note: Biolayer interferometry detects binding as a change in optical thickness at a sensor tip.
Broadly, the Kd is the constant that tells how readily two partners part at equilibrium. By koff is commonly meant the rate constant with which the complex falls apart. By kon is commonly meant a measure of how fast the partners come together. As to B7, the Kd turned out to be 1.8 nM, the koff was 0.00029 s⁻¹ and the association rate constant (kon) stood at 161000 M⁻¹ s⁻¹.
For B8, in that order: 1.86 nM, 0.000249 s⁻¹ and 134000 M⁻¹ s⁻¹.
As for B9, the Kd came out at 1.78 nM, the koff was 0.000251 s⁻¹ and the on-rate constant (kon) worked out at 141000 M⁻¹ s⁻¹.
For B10, in that order: 1.89 nM, 0.000285 s⁻¹ and 150000 M⁻¹ s⁻¹.

For a further assay the target is unchanged. Description: ELISA, IL-25 coated, goat anti-human kappa light chain-HRP detection. The protocol:
(§1) In this study, the ability of three humanized anti-IL-25 antibodies generated in hIgG1 (IL25Ab6 to Ab8) and hIgG1 YTE formats (IL25Ab9 to Ab11) binding to both human, mouse and cynomolgus IL-25 was evaluated using ELISA. Briefly, recombinant human IL-25 protein (Acro, catalog no: IL5-H4221, lot no: 401-20CNF1-UT), recombinant mouse IL-25 protein (Sino Biological Inc, catalog no: 50138-M07H, lot no: LC15AP0607) or recombinant cynomolgus IL-25 protein (Sino Biological Inc, catalog no: customized order, lot no: MB17MA2715) was directly coated to ELISA plates, respectively. Recombinant antibodies were then added to the plates followed by detection using goat-anti-human Kappa Light Chain antibody HRP (Novus, catalog no: NBP1-75064, Lot no: 68-188-010920). After the addition of ABTS (Moss Inc., catalog no: ABTS-1000, Lot no: 03086202) substrate, ELISA plates were read using an ELISA plate reader (Bioteck).
(In general: An ELISA detects its analyte on a solid surface through an enzyme-linked reagent.)
What is called EC50 is the concentration needed to bring the measured effect to its halfway point. For B1, the EC50 was 0.327 nM.
Regarding B2, the EC50 is 0.364 nM.
The same measure, in the same setting: with B3 the figure was 0.312 nM.
Still for that read-out and setting: the result for B4 reads 0.302 nM; that for B5, 0.318 nM.
On the same count and under the same terms, the result for B6 reads 0.404 nM.

In a further assay the target is T2, recombinant mouse IL-25 protein. The description is as above. The procedure:
as §1
On to B1, for which the EC50 came to 0.243 nM.
As for B2, the EC50 was 0.284 nM.
Still for that read-out and setting: with B3 the figure was 0.232 nM.
Same read-out and setting: with B4 the figure was 0.242 nM; with B5, 0.258 nM.
On the same count and under the same terms, with B6 the figure was 0.332 nM.

The next assay deals with T3, recombinant cynomolgus IL-25 protein. The description is as above. The protocol: as §1
As for B1, the EC50 was 0.245 nM.
The same measure, in the same setting: the result for B2 reads 0.266 nM; that for B3, 0.222 nM; that for B4, 0.241 nM.
The same measure, in the same setting: with B5 the figure was 0.239 nM.
On the same count and under the same terms, the result for B6 reads 0.295 nM.
